According to article PMC9482650, “Quantitative fragmentomics allow affinity mapping of interactomes” (Nature Communications, 2022):

Legend:
Experiment in all cases: holdup assay
Set-up in all cases: key: below the threshold = too weak to quantify, mostly under pKd 3.1 to 4
[1] = target: PICK1, Q9NRD5
[2] = target: Inadl_4, Q8NI35
[3] = target: CASK, O14936
[4] = target: T1, DLG3_2, Q92796
T1 sequence (Q92796 221-321, limits assumed, looked up): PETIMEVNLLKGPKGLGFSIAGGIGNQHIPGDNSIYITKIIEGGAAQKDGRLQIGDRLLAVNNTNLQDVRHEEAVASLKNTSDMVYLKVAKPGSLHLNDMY

[5] = target: SCRIB_1, Q14160
[6] = target: Inadl_10, Q8NI35
[7] = target: T2, RHPN1, Q8TCX5
T2 sequence (Q8TCX5 508-602, limits assumed, looked up): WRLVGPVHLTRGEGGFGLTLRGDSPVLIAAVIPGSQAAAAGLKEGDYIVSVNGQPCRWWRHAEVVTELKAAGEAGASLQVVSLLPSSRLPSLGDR

[8] = target: DLG1_1, Q12959
[9] = target: SCRIB_2, Q14160
[10] = target: T3, LNX2_3, Q8N448
T3 sequence (Q8N448 463-564, limits assumed, looked up): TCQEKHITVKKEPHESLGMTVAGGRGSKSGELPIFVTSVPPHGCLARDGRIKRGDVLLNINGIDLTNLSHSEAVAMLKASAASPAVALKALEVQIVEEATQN

[11] = target: DLG1_3, Q12959
[12] = target: T4, LRRC7, Q96NW7
T4 sequence (Q96NW7 1440-1537, limits assumed, looked up): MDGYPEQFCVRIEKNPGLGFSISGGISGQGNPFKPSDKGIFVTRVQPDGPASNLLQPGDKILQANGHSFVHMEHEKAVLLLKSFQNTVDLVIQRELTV

[13] = target: MAGI2_3, Q86UL8
[14] = target: LNX1_1, Q8TBB1
[15] = target: T5, RAPGEF6, Q8TEU7
T5 sequence (Q8TEU7 525-625, limits assumed, looked up): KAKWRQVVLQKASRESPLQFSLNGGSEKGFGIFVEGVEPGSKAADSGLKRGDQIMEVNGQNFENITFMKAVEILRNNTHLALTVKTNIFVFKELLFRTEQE

[16] = target: PDZRN4_1, Q6ZMN7
[17] = target: T6, MPP2, Q14168
T6 sequence (Q14168 180-250, limits assumed, looked up): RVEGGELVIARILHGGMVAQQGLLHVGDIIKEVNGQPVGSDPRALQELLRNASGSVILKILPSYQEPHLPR

[18] = target: Inadl_2, Q8NI35
[19] = target: T7, DFNB31_2, Q9P202
T7 sequence (Q9P202 274-371, limits assumed, looked up): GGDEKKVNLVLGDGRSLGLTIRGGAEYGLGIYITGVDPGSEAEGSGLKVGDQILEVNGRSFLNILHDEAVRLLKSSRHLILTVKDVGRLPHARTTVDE

[20] = target: T8, GRIP1_3, Q9Y3R0
T8 sequence (Q9Y3R0 247-346, limits assumed, looked up): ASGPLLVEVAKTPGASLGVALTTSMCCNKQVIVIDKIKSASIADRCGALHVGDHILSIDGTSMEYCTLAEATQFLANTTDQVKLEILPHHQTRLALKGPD

[21] = target: T9, TIAM2, Q8IVF5
T9 sequence (Q8IVF5 885-986, limits assumed, looked up): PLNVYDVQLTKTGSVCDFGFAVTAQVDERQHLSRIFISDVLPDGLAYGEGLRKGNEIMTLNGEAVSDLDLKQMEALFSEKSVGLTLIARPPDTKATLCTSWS

[22] = target: T10, NHERF3_3, Q5T2W1
T10 sequence (Q5T2W1 238-333, limits assumed, looked up): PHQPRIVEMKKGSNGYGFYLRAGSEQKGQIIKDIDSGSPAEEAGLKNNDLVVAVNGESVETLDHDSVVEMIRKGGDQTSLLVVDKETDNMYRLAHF

[23] = target: T11, DLG3_3, Q92796
T11 sequence (Q92796 374-475, limits assumed, looked up): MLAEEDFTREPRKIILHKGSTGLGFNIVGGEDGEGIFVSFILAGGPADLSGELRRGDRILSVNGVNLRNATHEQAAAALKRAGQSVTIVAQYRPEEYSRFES

[24] = target: GRID2IP_1, A4D2P6
[25] = target: LDB3, O75112
[26] = target: GOPC, Q9HD26
[27] = target: AHNAK1, Q09666
[28] = plain residues with an end cap or a label only (N-terminal biotin on a linker: ahx)
[29] = plain residues with an end cap or a label only (N-terminal biotin on a linker: ttds)
[30] = plain residues with an end cap or a label only (N-terminal biotin on a linker: ado-ado)

Chain of AHNAK1, Q09666 (Q09666 4-100): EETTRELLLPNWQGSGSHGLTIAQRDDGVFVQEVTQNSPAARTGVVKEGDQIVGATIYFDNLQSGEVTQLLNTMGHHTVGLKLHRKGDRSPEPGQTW
Chain of Inadl_2, Q8NI35 (Q8NI35 238-335): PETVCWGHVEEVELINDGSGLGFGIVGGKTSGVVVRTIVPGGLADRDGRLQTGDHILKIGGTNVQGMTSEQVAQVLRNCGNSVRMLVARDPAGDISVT
Chain of PDZRN4_1, Q6ZMN7 (Q6ZMN7 213-318): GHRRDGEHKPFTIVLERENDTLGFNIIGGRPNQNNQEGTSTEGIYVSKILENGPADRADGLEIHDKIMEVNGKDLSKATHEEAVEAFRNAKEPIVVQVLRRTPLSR
Chain of CASK, O14936 (O14936 487-570): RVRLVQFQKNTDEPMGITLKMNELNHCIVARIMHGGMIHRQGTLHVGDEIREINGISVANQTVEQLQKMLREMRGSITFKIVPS
Chain of SCRIB_1, Q14160 (Q14160 718-814): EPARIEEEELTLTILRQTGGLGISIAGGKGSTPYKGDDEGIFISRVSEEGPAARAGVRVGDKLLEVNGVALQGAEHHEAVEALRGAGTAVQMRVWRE
Chain of Inadl_4, Q8NI35 (Q8NI35 547-651): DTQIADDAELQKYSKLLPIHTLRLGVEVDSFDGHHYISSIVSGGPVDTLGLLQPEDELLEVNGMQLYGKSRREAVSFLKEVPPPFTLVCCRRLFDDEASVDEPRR
Chain of MAGI2_3, Q86UL8 (Q86UL8 600-682): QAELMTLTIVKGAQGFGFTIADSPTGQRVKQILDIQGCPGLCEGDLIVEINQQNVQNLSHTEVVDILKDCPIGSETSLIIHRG
Chain of LDB3, O75112 (O75112 1-94): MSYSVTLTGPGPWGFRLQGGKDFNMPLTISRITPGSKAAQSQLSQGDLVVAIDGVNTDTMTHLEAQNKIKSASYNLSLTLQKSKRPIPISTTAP
Chain of GRID2IP_1, A4D2P6 (A4D2P6 1-87): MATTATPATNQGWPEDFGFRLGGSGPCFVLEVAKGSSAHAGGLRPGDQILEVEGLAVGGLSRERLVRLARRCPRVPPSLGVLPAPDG
Chain of LNX1_1, Q8TBB1 (Q8TBB1 261-371): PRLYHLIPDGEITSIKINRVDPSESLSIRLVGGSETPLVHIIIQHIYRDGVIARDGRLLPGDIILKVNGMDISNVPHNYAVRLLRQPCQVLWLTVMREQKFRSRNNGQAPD
Chain of Inadl_10, Q8NI35 (Q8NI35 1673-1763): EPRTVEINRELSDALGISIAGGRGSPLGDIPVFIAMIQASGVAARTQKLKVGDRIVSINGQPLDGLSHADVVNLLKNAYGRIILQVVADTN
Chain of SCRIB_2, Q14160 (Q14160 857-960): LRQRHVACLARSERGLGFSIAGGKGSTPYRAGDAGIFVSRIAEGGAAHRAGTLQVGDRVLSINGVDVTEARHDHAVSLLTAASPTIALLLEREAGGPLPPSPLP
Chain of PICK1, Q9NRD5 (Q9NRD5 17-115): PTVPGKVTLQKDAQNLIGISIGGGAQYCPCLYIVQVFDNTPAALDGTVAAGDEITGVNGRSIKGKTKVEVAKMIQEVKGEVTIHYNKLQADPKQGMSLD

HSATSVHTSV [MTMR1, Q13613]
pKd [1, 28]: below the threshold | pKd [2, 28]: below the threshold | pKd [3, 28]: below the threshold | pKd [4, 28]: 4.72 | pKd [5, 28]: 3.79 | pKd [6, 28]: 3.62 | pKd [7, 28]: 4.09 | pKd [8, 28]: 4.26 | pKd [9, 28]: 3.95 | pKd [10, 28]: below the threshold | pKd [11, 28]: 3.56 | pKd [12, 28]: below the threshold | pKd [13, 28]: below the threshold | pKd [14, 28]: below the threshold | pKd [15, 28]: below the threshold | pKd [16, 28]: below the threshold | pKd [17, 28]: below the threshold | pKd [18, 28]: below the threshold | pKd [19, 28]: below the threshold | pKd [20, 28]: below the threshold | pKd [21, 28]: below the threshold | pKd [22, 28]: below the threshold | pKd [23, 28]: 3.68 | pKd [24, 28]: below the threshold | pKd [25, 28]: below the threshold | pKd [26, 28]: 3.75 | pKd [27, 28]: below the threshold

GARVSKETPL [MAPK12, P53778]
pKd [1, 29]: below the threshold | pKd [2, 29]: below the threshold | pKd [3, 29]: below the threshold | pKd [4, 29]: 4.28 | pKd [5, 29]: 4.94 | pKd [6, 29]: below the threshold | pKd [7, 29]: below the threshold | pKd [8, 29]: 4.08 | pKd [9, 29]: 3.65 | pKd [10, 29]: below the threshold | pKd [11, 29]: 3.95 | pKd [12, 29]: below the threshold | pKd [13, 29]: below the threshold | pKd [14, 29]: below the threshold | pKd [15, 29]: below the threshold | pKd [16, 29]: 4.71 | pKd [17, 29]: below the threshold | pKd [18, 29]: below the threshold | pKd [19, 29]: below the threshold | pKd [20, 29]: below the threshold | pKd [21, 29]: below the threshold | pKd [22, 29]: below the threshold | pKd [23, 29]: 4.01 | pKd [24, 29]: below the threshold | pKd [25, 29]: below the threshold | pKd [26, 29]: below the threshold | pKd [27, 29]: below the threshold

IGHEDLETAV [DGKI, O75912]
pKd [1, 30]: below the threshold | pKd [2, 30]: below the threshold | pKd [3, 30]: below the threshold | pKd [4, 30]: 4.8 | pKd [5, 30]: 4.49 | pKd [6, 30]: below the threshold | pKd [7, 30]: 4.77 | pKd [8, 30]: 4.51 | pKd [9, 30]: 4.83 | pKd [10, 30]: below the threshold | pKd [11, 30]: 3.68 | pKd [12, 30]: 3.93 | pKd [13, 30]: 4.61 | pKd [14, 30]: 3.58 | pKd [15, 30]: below the threshold | pKd [16, 30]: 4.7 | pKd [17, 30]: below the threshold | pKd [18, 30]: below the threshold | pKd [19, 30]: below the threshold | pKd [20, 30]: below the threshold | pKd [21, 30]: below the threshold | pKd [22, 30]: below the threshold | pKd [23, 30]: 4.02 | pKd [24, 30]: below the threshold | pKd [25, 30]: below the threshold | pKd [26, 30]: 3.58 | pKd [27, 30]: below the threshold
